Measured values taken from patent US20220000982A1 (Novo Nordisk, published 2022).
*1 amine or outer side, *2 acyl side, *3 side chain or, on linkers, in order; H or OH if unused. Where no end group is shown, it is not given here. Side-chain parts run from the residue outwards. [ ]: non-standard residue; d: D form. The star is where a group is joined. C20 diacid = O=C(O)CCCCCCCCCCCCCCCCCCC(=O)*; C18 diacid = O=C(O)CCCCCCCCCCCCCCCCC(=O)*; γGlu = O=C(O)[C@H](CCC(=O)[*:2])N[*:1]; Trx = NC[C@H]1CC[C@H](C(=O)O)CC1; Nle = CCCC[C@H](N)C(=O)O; AEEA = NCCOCCOCC(=O)O; Aib = CC(C)(N)C(=O)O

How the values were obtained:
Assay in all cases: cell-based or functional assay
human glucagon receptor = human glucagon receptor (human, UniProt P47871 26-477)
human GLP-1 receptor = human GLP-1 receptor (human, UniProt P43220 24-463)
human GIP receptor = molecular target: T1, human GIP receptor (human, UniProt P48546 22-466)
T1 sequence (looked up): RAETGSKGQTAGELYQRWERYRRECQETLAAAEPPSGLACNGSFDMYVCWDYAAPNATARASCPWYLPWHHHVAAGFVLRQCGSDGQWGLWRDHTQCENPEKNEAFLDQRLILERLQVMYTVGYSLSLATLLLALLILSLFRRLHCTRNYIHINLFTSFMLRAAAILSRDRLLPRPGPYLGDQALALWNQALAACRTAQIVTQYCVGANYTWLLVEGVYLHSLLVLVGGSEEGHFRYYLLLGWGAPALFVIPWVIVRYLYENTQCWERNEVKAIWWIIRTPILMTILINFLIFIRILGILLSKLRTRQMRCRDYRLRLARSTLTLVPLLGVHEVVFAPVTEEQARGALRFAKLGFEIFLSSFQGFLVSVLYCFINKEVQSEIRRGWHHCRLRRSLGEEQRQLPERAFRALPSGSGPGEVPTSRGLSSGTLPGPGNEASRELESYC

Chain of human glucagon receptor (P47871 26-477): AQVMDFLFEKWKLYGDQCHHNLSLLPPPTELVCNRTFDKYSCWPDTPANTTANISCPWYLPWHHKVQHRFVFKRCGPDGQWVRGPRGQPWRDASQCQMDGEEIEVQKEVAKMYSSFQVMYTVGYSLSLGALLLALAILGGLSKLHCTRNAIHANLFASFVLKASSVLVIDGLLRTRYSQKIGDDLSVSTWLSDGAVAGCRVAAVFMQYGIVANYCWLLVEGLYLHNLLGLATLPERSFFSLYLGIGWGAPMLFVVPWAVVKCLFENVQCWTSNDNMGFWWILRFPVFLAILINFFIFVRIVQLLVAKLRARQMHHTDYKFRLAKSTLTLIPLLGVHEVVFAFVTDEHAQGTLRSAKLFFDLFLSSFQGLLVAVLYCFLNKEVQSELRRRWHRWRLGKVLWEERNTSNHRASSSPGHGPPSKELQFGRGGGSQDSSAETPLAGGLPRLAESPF

| Molecule | EC50, hGIP-R CRE Luc, 0.2% HSA (human GIP receptor) [nM] | other results |
| --- | --- | --- |
| hGIP(1-42) (from UniProt P09681 52-93) (ligand) | – | EC50, hGcg-R CRE Luc, 0.2% HSA (human glucagon receptor): > 100 nM; EC50, hGLP-1-R CRE Luc, 0.2% HSA (human GLP-1 receptor): > 100 nM |
| Y[Aib]EGTFISDYSIA[Nle]DKIHQEDFVK([γGlu-γGlu-γGlu-γGlu-C18 diacid])WLLAQKG | 0.158 | – |
| Ac-[dY]AEGTFISDYSIA[Nle]DKIHQ[Aib]DFVK([γGlu-γGlu-γGlu-Trx-C20 diacid])WLLAQKG | 0.153 | – |
| Ac-[dY]AEGTFISDYSIA[Nle]DKIHQQDFVK([γGlu-γGlu-γGlu-Trx-C20 diacid])WLLAQKP-NH2 | 0.0712 | – |
| Ac-[dY][Aib]EGTFISDYSIA[Nle]DKIRQQDFVK([γGlu-γGlu-γGlu-γGlu-Trx-C20 diacid])WLLAQKP-NH2 | 0.0261 | EC50, hGcg-R CRE Luc, 1% HSA (*) (human glucagon receptor): > 100 nM; EC50, hGLP-1-R CRE Luc, 1% HSA (*) (human GLP-1 receptor): > 10 nM |
| Y[Aib]EGTFISDYSIA[Nle]DKIRQQDFVK([γGlu-γGlu-γGlu-Trx-C20 diacid])WLLAQKGKEEDWKHNITQ | 0.022 | – |
| Y[Aib]EGTFISDYSIA[Nle]DKIRQEDFVK([γGlu-γGlu-γGlu-Trx-C20 diacid])WLLAQKG | 0.252 | – |
| Y[Aib]EGTFISDYSIA[Nle]DKIHQQDFVK([γGlu-γGlu-γGlu-Trx-C20 diacid])WLLAQKP-NH2 | 0.0675 | – |
| Y[Aib]EGTFISDYSIA[Nle]DKIRQQDFVK([AEEA-AEEA-γGlu-Trx-C20 diacid])WLLAQKG | 0.0447 | – |
| Y[Aib]EGTFISDYSIA[Nle]DKIHQQDFVK([AEEA-AEEA-γGlu-C18 diacid])WLLAQKGKEEDWKHNITQ | 0.00545 | EC50, hGcg-R CRE Luc, 0.2% HSA (human glucagon receptor): > 100 nM; EC50, hGLP-1-R CRE Luc, 0.2% HSA (human GLP-1 receptor): > 100 nM |
| Y[Aib]EGTFISDYSIA[Nle]DKIRQQDFVK([γGlu-γGlu-γGlu-Trx-C20 diacid])WLLAQKG | 0.0721 | – |
| Y[Aib]EGTFISDYSIA[Nle]DKIRQQDFVK([AEEA-AEEA-γGlu-C18 diacid])WLLAQKGKEEDWKHNITQ | 0.00412 | EC50, hGcg-R CRE Luc, 0.2% HSA (human glucagon receptor): > 100 nM; EC50, hGLP-1-R CRE Luc, 0.2% HSA (human GLP-1 receptor): > 100 nM |
| Y[Aib]EGTFISDYSIA[Nle]DKIRQQDFVK([γGlu-γGlu-γGlu-Trx-C20 diacid])WLLAQKP-NH2 | 0.0615 | – |
| Y[Aib]EGTFISDYSIA[Nle]DKIHQEDFVK([γGlu-γGlu-γGlu-γGlu-Trx-C20 diacid])WLLAQKG | 0.81 | – |
| Ac-[dY][Aib]EGTFISDYSIA[Nle]DKIRQQDFVK([γGlu-γGlu-γGlu-C18 diacid])WLLAQKP-NH2 | 0.0212 | EC50, hGLP-1-R CRE Luc, 0.2% HSA (human GLP-1 receptor): > 100 nM |
| Ac-[dY]AEGTFISDYSIA[Nle]DKIRQQDFVK([γGlu-γGlu-γGlu-C18 diacid])WLLAQKG | 0.0489 | – |
| Y[Aib]EGTFISDYSIA[Nle]DKIHQQDFVK([AEEA-AEEA-γGlu-C18 diacid])WLLAQKGKEDDWKHNITQ | 0.00597 | EC50, hGcg-R CRE Luc, 0.2% HSA (human glucagon receptor): > 100 nM; EC50, hGLP-1-R CRE Luc, 0.2% HSA (human GLP-1 receptor): > 100 nM |
| Ac-YAEGTFISDYSIA[Nle]DKIRQQDFVK([γGlu-γGlu-γGlu-C18 diacid])WLLAQKG | 0.546 | – |
| Y[Aib]EGTFISDYSIA[Nle]DKIRQ[Aib]DFVK([γGlu-γGlu-γGlu-Trx-C20 diacid])WLLAQKG | 0.0712 | – |

| Molecule | EC50, hGIP-R CRE Luc, 0.2% HSA (human GIP receptor) [nM] | other results |
| --- | --- | --- |
| Ac-[dY]AEGTFISDYSIA[Nle]DKIRQQDFVK([γGlu-γGlu-γGlu-Trx-C20 diacid])WLLAQKP-NH2 | 0.0762 | – |
| Y[Aib]EGTFISDYSIA[Nle]DKIRQQDFVK([γGlu-γGlu-γGlu-C18 diacid])WLLAQKGKENDWKHNITQ | 0.0201 | EC50, hGcg-R CRE Luc, 1% HSA (*) (human glucagon receptor): > 100 nM; EC50, hGLP-1-R CRE Luc, 1% HSA (*) (human GLP-1 receptor): > 100 nM |
| Y[Aib]EGTFISDYSIA[Nle]DKIHQQDFVK([γGlu-γGlu-γGlu-C18 diacid])WLLAQKGKEEDWKHNITQ | 0.009 | EC50, hGcg-R CRE Luc, 0.2% HSA (human glucagon receptor): > 100 nM; EC50, hGLP-1-R CRE Luc, 0.2% HSA (human GLP-1 receptor): > 100 nM |
| HAEGTFTSDVSSYLEGQAAKEFIAWLVKGRG (ligand) [hGLP-1(7-37)] | > 100 | – |
| Ac-[dY]AEGTFISDYSIA[Nle]DKIRQQDFVK([γGlu-γGlu-γGlu-Trx-C20 diacid])WLLAQKG | 0.18 | – |
| Y[Aib]EGTFISDYSIA[Nle]DKIHQQDFVK([γGlu-γGlu-γGlu-C18 diacid])WLLAQKGKENDWKHNITQ | 0.0213 | EC50, hGcg-R CRE Luc, 1% HSA (*) (human glucagon receptor): > 100 nM; EC50, hGLP-1-R CRE Luc, 1% HSA (*) (human GLP-1 receptor): > 100 nM |
| Y[Aib]EGTFISDYSIA[Nle]DAIRQQDFVK([γGlu-γGlu-γGlu-Trx-C20 diacid])WLLAQKG | 0.266 | – |
| Ac-[dY]AEGTFISDYSIA[Nle]DKIRQQDFVK([AEEA-AEEA-γGlu-C18 diacid])WLLAQKG | 0.0304 | – |
| Ac-[dY][Aib]EGTFISDYSIA[Nle]DKIHQQDFVK([γGlu-γGlu-γGlu-Trx-C20 diacid])WLLAQKP-NH2 | 0.0384 | – |
| Ac-[dY]AEGTFISDYSIA[Nle]DKIHQEDFVK([γGlu-γGlu-γGlu-Trx-C20 diacid])WLLAQKG | 0.547 | – |
| Y[Aib]EGTFISDYSIA[Nle]DKIRQ[Aib]DFVK([γGlu-γGlu-γGlu-C18 diacid])WLLAQKG | 0.0094 | – |
| Y[Aib]EGTFISDYSIA[Nle]DKIHQQDFVK([γGlu-γGlu-γGlu-C18 diacid])WLLAQKG | 0.0499 | EC50, hGcg-R CRE Luc, 1% HSA (*) (human glucagon receptor): > 100 nM; EC50, hGLP-1-R CRE Luc, 1% HSA (*) (human GLP-1 receptor): > 100 nM |
| Ac-[dY]AEGTFISDYSIA[Nle]DKIRQQDFVK([AEEA-AEEA-γGlu-γGlu-γGlu-C18 diacid])WLLAQKG | 0.0431 | – |
| Y[Aib]EGTFISDYSIA[Nle]DAIRQQDFVK([γGlu-γGlu-γGlu-C18 diacid])WLLAQKG | 0.0725 | – |
| Y[Aib]EGTFISDYSIA[Nle]DKIRQEDFVK([γGlu-γGlu-γGlu-C18 diacid])WLLAQKG | 0.0629 | – |
| Ac-[dY]AEGTFISDYSIADDKIRQEDFVK([AEEA-AEEA-γGlu-C18 diacid])WLLAQKG | 0.0915 | – |
| Ac-[dY]AEGTFISDYSIA[Nle]DKIRQEDFVK([AEEA-AEEA-γGlu-C18 diacid])WLLAQKG | 0.025 | – |
| YAEGTFISDYSIAMDKIHQQDFVNWLLAQKG (ligand) [hGIP(1-31)] | 0.00224 | – |
| Y[Aib]EGTFISDYSIA[Nle]DKIRQQDFVK([AEEA-AEEA-γGlu-Trx-C20 diacid])WLLAQKGKEEDWKHNITQ | 0.014 | – |
